Data from patent US20190358305A1.

Biological target: Recombinant human active MMP-3 (ab96555, Abcam) (human) (UniProt P08254)
Assay: cell-based or functional assay

Chain of UniProt P08254 (P08254 100-477 limits assumed): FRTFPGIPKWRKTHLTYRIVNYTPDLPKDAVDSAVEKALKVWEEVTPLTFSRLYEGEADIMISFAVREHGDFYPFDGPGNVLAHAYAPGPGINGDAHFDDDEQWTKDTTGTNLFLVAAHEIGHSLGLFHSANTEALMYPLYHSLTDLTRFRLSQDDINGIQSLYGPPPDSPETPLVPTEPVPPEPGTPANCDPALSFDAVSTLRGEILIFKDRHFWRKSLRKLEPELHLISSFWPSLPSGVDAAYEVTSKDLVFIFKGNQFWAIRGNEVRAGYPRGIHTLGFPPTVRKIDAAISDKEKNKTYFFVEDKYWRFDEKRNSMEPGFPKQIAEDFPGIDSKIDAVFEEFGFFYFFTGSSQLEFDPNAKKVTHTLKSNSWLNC

Recombinant human active TIMP-1 (ab82104, Abcam) (from UniProt P01033 24-207)
TEER reduction of HTM monolayers over 24 h: 10 ng/ml active MMP-3 against MMP-3 inactivated by incubation with TIMP-1: 4.29 Ohm·cm^2
TEER reduction of SCEC monolayers over 24 h: 10 ng/ml active MMP-3 against MMP-3 inactivated by incubation with TIMP-1: 5.62 Ohm·cm^2
increase in paracellular flux (Papp) of 70 kDa FITC-dextran through HTM monolayers: active MMP-3 against TIMP-1-inactivated MMP-3: 4e-05 ×10⁻⁶ cm/s
increase in paracellular flux (Papp) of 70 kDa FITC-dextran through SCEC monolayers: active MMP-3 against TIMP-1-inactivated MMP-3: 0.00014 ×10⁻⁶ cm/s
